Values belong to the binder of their own block, whether it stands above or below them. Starred links: 1 amine or outer side, 2 acyl side, 3 side chain; linkers in the order of their positions; H or OH if unused. Positions of bridges follow the written chain, without caps; N, C: chain ends. Non-standard residues stand in square brackets, D forms with d. Primed or numbered codes have the meaning given here. PyrS2″ = (S)-3-amino-1-((pent-4-en-1-yloxy)carbonyl)pyrrolidine-3-carboxylic acid (stapling residue), C=CCCCOC(=O)N1CC[C@@](N[*:1])(C(=O)[*:2])C1; B5(16) = 2-amino-2-(pent-4-en-1-yl)hept-6-enoic acid = 2,2-bis(4-pentenyl)glycine (stitching residue), C=CCCCC(CCCC=C)(N[*:1])C(=O)[*:2]; B5(4) = 2,2-bis(4-pentenyl)glycine = 2-amino-2-(pent-4-en-1-yl)hept-6-enoic acid (stitching residue), C=CCCCC(CCCC=C)(N[*:1])C(=O)[*:2]; TfeGA = (S)-2-amino-3-((carboxymethyl)(2,2,2-trifluoroethyl)amino)propanoic acid, O=C([C@H](CN(CC(=O)[*:3])CC(F)(F)F)N[*:1])[*:2]; (Morph)GlnR = (S)-2-amino-5-morpholino-5-oxopentanoic acid, O=C(CC[C@H](N[*:1])C(=O)[*:2])N1CCOCC1; B5(3) = 2,2-bis(4-pentenyl)glycine (stitching residue), C=CCCCC(CCCC=C)(N[*:1])C(=O)[*:2]; Phe(3-COOH) = N[C@@H](Cc1cccc(C(=O)O)c1)C(=O)O; 2F3MeF = Cc1cccc(C[C@H](N[*:1])C(=O)[*:2])c1F; Phe(2-Cl) = N[C@@H](Cc1ccccc1Cl)C(=O)O; Bta = N[C@@H](Cc1csc2ccccc12)C(=O)O; αAllylPro = C=CC[C@@]1(C(=O)O)CCCN1; tBuAla = CC(C)(C)C[C@H](N)C(=O)O; PyrS2(4) = not defined here; hSer = N[C@@H](CCO)C(=O)O
Legend:
Assay in all cases: cell-based or functional assay
[1] = biological target: T1, beta-catenin in DLD1 TCF/LEF luciferase reporter cells (UniProt P35222 1-781)
T1 sequence (looked up): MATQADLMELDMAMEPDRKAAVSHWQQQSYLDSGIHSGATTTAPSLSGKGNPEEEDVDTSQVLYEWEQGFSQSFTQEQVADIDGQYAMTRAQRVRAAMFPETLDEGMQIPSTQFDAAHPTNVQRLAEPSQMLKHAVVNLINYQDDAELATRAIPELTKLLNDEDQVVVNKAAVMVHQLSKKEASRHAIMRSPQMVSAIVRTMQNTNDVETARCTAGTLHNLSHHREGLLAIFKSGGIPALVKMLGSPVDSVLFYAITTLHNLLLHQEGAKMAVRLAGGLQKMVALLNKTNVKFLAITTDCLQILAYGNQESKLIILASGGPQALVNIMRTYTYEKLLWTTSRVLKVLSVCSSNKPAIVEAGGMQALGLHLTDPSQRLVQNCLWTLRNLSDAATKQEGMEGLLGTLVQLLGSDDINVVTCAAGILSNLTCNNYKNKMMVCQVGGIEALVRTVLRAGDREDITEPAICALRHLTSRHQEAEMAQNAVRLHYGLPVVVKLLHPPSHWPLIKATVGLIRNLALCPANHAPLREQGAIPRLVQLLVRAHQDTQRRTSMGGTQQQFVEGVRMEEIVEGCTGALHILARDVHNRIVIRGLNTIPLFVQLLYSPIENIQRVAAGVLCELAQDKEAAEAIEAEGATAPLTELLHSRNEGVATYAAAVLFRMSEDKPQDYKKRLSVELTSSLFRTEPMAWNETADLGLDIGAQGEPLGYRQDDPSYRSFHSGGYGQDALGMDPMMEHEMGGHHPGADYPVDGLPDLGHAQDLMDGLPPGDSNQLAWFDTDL

B-cat-Halo = biological target: T2, B-cat-Halo (UniProt P35222 1-781)
T2 sequence (looked up): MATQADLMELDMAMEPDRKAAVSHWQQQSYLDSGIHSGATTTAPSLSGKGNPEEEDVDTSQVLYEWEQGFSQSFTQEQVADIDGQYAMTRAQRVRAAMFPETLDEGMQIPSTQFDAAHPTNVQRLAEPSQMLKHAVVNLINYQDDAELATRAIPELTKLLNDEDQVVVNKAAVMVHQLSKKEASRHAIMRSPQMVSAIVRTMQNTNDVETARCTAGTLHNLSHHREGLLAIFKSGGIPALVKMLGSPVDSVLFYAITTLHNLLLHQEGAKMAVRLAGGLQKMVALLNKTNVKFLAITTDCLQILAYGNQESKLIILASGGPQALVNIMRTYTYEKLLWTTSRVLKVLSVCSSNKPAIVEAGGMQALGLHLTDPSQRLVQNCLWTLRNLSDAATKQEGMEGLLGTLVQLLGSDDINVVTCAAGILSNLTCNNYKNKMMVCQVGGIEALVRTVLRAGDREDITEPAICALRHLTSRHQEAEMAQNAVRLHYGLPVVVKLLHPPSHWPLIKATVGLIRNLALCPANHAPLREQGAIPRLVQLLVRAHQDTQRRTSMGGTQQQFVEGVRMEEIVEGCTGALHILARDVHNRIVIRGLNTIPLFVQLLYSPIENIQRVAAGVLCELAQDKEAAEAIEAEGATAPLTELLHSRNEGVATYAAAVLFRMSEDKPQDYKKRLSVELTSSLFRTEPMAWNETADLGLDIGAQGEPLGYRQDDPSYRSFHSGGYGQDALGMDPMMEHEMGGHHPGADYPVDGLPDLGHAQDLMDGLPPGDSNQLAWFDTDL

Bcat-Halo = biological target: T3, Bcat-Halo (UniProt P35222 1-781)
T3 sequence (looked up): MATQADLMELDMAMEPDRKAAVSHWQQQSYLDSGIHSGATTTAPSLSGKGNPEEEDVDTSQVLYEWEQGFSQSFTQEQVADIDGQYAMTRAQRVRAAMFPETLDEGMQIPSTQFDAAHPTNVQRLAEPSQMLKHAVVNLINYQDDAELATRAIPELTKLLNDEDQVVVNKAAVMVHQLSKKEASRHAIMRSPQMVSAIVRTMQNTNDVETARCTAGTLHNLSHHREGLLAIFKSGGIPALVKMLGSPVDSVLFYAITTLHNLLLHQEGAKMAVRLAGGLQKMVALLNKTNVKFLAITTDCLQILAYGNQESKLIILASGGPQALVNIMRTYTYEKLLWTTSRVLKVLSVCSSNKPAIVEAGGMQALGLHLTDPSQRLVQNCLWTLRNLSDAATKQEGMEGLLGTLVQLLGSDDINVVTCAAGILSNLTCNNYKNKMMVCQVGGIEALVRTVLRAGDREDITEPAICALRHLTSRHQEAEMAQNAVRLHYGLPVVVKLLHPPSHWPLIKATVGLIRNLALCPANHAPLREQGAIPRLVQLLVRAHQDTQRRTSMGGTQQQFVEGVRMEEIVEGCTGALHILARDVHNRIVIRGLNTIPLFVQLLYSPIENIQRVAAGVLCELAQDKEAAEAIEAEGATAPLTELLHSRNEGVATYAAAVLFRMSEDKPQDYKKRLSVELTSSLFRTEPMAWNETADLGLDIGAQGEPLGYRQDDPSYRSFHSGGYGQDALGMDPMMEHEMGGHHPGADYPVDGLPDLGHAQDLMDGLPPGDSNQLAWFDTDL

[2] = biological target: T4, beta-catenin in DLD1 TCF/LEF luciferase reporter cells (UniProt P35222 2-781)
T4 sequence (looked up): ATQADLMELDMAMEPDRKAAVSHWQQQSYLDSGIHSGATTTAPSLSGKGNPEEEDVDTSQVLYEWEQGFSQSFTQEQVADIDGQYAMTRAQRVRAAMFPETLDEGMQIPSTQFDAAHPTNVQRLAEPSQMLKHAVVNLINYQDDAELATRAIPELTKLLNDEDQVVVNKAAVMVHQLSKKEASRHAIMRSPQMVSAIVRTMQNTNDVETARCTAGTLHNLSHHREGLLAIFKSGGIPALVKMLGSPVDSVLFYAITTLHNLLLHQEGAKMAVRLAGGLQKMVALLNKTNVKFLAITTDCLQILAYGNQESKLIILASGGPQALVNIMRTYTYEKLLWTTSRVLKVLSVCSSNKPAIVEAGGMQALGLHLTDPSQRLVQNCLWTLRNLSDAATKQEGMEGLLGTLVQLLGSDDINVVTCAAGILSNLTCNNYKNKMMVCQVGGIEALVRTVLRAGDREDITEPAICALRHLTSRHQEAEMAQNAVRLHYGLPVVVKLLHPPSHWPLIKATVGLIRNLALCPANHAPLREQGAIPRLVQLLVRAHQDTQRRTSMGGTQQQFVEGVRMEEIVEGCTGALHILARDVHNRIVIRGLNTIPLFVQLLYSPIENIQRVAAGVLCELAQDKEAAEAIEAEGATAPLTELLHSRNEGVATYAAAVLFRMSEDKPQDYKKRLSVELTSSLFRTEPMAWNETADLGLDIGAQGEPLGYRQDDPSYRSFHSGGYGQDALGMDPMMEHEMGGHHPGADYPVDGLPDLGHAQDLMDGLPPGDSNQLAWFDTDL

[3] = biological target: T5, beta-catenin in DLD1 TCF/LEF luciferase reporter cells (UniProt P35222 1-781); remark: listed apart in the source
T5 sequence (looked up): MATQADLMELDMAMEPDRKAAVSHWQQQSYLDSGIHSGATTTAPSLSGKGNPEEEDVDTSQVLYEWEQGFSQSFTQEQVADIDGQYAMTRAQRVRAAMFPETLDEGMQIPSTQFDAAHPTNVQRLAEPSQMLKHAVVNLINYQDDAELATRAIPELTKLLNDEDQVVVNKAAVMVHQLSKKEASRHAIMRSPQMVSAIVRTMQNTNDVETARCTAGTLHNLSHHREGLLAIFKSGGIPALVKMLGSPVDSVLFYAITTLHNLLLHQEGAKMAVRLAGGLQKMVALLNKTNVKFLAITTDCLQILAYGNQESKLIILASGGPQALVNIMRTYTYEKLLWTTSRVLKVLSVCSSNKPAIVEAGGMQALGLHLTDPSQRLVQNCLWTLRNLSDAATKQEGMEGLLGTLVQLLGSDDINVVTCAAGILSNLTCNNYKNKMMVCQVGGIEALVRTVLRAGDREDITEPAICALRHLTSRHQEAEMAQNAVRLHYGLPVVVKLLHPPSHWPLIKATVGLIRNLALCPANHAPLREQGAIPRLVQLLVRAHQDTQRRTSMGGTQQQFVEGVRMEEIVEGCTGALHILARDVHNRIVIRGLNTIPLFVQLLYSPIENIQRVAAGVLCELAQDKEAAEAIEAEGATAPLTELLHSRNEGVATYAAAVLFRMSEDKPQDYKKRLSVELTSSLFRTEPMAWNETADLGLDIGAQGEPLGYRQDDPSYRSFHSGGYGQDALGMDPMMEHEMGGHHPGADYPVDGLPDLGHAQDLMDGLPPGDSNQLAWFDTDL

DLD1 4% Abs IC50 [1]: 1800 nM
NanoBRET Abs IC50 (B-cat-Halo): 4900 nM
Binder: Ac-[αAllylPro]D[tBuAla][B5(3)]D[TfeGA]AAF[hSer][PyrS2″][Phe(2-Cl)][Bta][hSer]-NH2 (staple 1-4, 4-11) [I-993]

NanoBRET Abs IC50 (Bcat-Halo): 1200 nM
DLD1 4% Abs IC50 [2]: 1500 nM
Binder: Ac-[αAllylPro]D[tBuAla][B5(4)]D[Phe(3-COOH)][(Morph)GlnR]AFL[PyrS2″][2F3MeF][Bta]A-NH2 (staple 1-4, 4-11) [I-2315]

DLD1 4% Abs IC50 [3]: 3400 nM
B1: I-1684 (peptide)
peptide: Ac-[αAllylPro]D[tBuAla][B5(16)]D[Phe(3-COOH)]GAFL[PyrS2(4)][Phe(2-Cl)][Bta]Q-NH2
modifications: staple 1-4, 4-11; not fully specified; printed as Ac-PL3-Asp-Npg-B5-Asp-3COOHF-Gly-Ala-Phe-Leu-PyrS2-2C1F-BztA-Gln-NH2; reading uncertain

Source: patent US20240116985A1 (published 2024)
